In patent US20240011000:

Experiments:
[1] = system: Br512 (villin headpiece HP47-Bst-LF fusion DNA polymerase) (Geobacillus stearothermophilus / Gallus gallus fusion)
Bst 2.0 DNA polymerase = Bst 2.0 DNA polymerase (UniProt P52026); conditions: RT-LAMP-OSD, 300 genomes, isothermal buffer, 65 C
[2] = system: Bst-LF (DNA polymerase I large fragment) (Geobacillus stearothermophilus); conditions: RT-LAMP-OSD, G6D buffer, 65 C

Chain of UniProt P52026 (P52026 297-876): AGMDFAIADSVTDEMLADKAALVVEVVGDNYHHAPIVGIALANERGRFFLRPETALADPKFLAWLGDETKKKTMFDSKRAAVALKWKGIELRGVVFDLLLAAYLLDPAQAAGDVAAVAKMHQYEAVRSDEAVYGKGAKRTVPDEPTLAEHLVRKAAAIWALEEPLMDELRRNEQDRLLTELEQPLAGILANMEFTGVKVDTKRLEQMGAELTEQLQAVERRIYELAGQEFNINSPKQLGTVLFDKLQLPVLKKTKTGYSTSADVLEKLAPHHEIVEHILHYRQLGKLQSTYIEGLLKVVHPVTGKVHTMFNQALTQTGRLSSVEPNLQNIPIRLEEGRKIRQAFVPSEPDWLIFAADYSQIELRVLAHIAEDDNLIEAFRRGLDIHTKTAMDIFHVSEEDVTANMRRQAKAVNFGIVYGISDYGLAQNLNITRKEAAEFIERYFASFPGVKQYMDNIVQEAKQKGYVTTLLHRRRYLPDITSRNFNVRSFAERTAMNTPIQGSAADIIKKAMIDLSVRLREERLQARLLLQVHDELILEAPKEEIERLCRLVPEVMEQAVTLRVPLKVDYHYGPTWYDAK

Substance	activity (% assays positive) [1]	activity (% assays positive) (Bst 2.0 DNA polymerase)	activity (% assays positive) [2]
SARS-CoV-2 RNA, NB (N gene) target	80	25	16
SARS-CoV-2 RNA, 6-Lamb target	100	75	33
